Measurements: the supplement of paper PMC9112550, “Optimization of the antimicrobial peptide Bac7 by deep mutational scanning” (BMC Biology, 2022)

System: Escherichia coli TOP10
Assay: shrunken log2 fold change of peptide-encoding DNA abundance (4.5 h post-induction vs induction); higher = less antimicrobial activity (less host growth inhibition)
Settings: time post-induction: 4.5 h; library: site-saturation at positions 5, 18, 19, 20
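Note: peptides expressed intracellularly from a pBAD plasmid library in pooled LB shake-flask culture, induced with 0.3% L-arabinose, DNA abundance read by NGS, three biological replicates, DESeq2 with apeglm shrinkage.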

| Sequence | shrunken log2 fold change |
| --- | --- |
| RRIRGRPPRLPRPRPRPFWCPRP | -0.0505 |
| RRIRIRPPRLPRPRPRPLVFPRP | -0.348 |
| RRIRVRPPRLPRPRPRPFFVPRP | -0.0592 |
| RRIRCRPPRLPRPRPRPKKYPRP | -0.485 |
| RRIRARPPRLPRPRPRPKCWPRP | 0.622 |
| RRIRTRPPRLPRPRPRPIAVPRP | -0.213 |
| RRIRHRPPRLPRPRPRPCLNPRP | -0.263 |
| RRIRYRPPRLPRPRPRPQRLPRP | -0.131 |
| RRIRKRPPRLPRPRPRPLNRPRP | -0.0492 |
| RRIRNRPPRLPRPRPRPMDGPRP | -0.261 |
| RRIRKRPPRLPRPRPRPQRKPRP | 0.71 |
| RRIRARPPRLPRPRPRPPIPPRP | 0.319 |
| RRIRSRPPRLPRPRPRPRSMPRP | -0.0644 |
| RRIRDRPPRLPRPRPRPSKDPRP | -0.242 |
| RRIRVRPPRLPRPRPRPLGAPRP | 0.352 |
| RRIRERPPRLPRPRPRPHHAPRP | 0.0055 |
| RRIRLRPPRLPRPRPRPEFRPRP | 0.126 |
| RRIRFRPPRLPRPRPRPVYIPRP | -1.22 |
| RRIRARPPRLPRPRPRPTNAPRP | 0.434 |
| RRIRYRPPRLPRPRPRPYWTPRP | -0.00804 |
| RRIRQRPPRLPRPRPRPMYHPRP | -0.477 |
| RRIRWRPPRLPRPRPRPQIVPRP | 0.0235 |
| RRIRGRPPRLPRPRPRPCVCPRP | 0.617 |
| RRIRERPPRLPRPRPRPEWDPRP | -0.105 |
| RRIRIRPPRLPRPRPRPFDIPRP | -1.02 |

| Sequence | shrunken log2 fold change |
| --- | --- |
| RRIRGRPPRLPRPRPRPCNHPRP | -0.402 |
| RRIRHRPPRLPRPRPRPTCTPRP | 0.141 |
| RRIRRRPPRLPRPRPRPIPYPRP | -0.16 |
| RRIRDRPPRLPRPRPRPHRCPRP | -0.00141 |
| RRIRRRPPRLPRPRPRPTKHPRP | 0.124 |
| RRIRHRPPRLPRPRPRPWCIPRP | -0.228 |
| RRIRERPPRLPRPRPRPNFEPRP | -0.188 |
| RRIRYRPPRLPRPRPRPWSDPRP | -0.0783 |
| RRIRSRPPRLPRPRPRPRQEPRP | -0.0798 |
| RRIRRRPPRLPRPRPRPHINPRP | -0.432 |
| RRIRDRPPRLPRPRPRPCPKPRP | -0.048 |
| RRIRYRPPRLPRPRPRPQMPPRP | -0.205 |
| RRIRMRPPRLPRPRPRPPLSPRP | 0.185 |
| RRIRMRPPRLPRPRPRPKTRPRP | 0.994 |
| RRIRARPPRLPRPRPRPYFRPRP | -0.435 |
| RRIRWRPPRLPRPRPRPLMGPRP | -0.276 |
| RRIRWRPPRLPRPRPRPARMPRP | 0.362 |
| RRIRARPPRLPRPRPRPSEWPRP | 0.0632 |
| RRIRERPPRLPRPRPRPTSMPRP | -0.713 |
| RRIRHRPPRLPRPRPRPDKMPRP | -0.0794 |
| RRIRRRPPRLPRPRPRPKKDPRP | 0.176 |
| RRIRERPPRLPRPRPRPERHPRP | -0.152 |
| RRIRSRPPRLPRPRPRPCINPRP | -0.5 |
| RRIRDRPPRLPRPRPRPMCHPRP | 0.216 |
| RRIRFRPPRLPRPRPRPCTDPRP | -0.183 |

| Sequence | shrunken log2 fold change |
| --- | --- |
| RRIRLRPPRLPRPRPRPMYDPRP | -0.787 |
| RRIRLRPPRLPRPRPRPRTKPRP | 0.567 |
| RRIRHRPPRLPRPRPRPEGGPRP | -0.0289 |
| RRIRFRPPRLPRPRPRPQHDPRP | -0.394 |
| RRIRKRPPRLPRPRPRPDAEPRP | 1.59 |
| RRIRTRPPRLPRPRPRPRFAPRP | 0.37 |
| RRIRKRPPRLPRPRPRPNGNPRP | -0.146 |
| RRIRIRPPRLPRPRPRPGSHPRP | 0.141 |
| RRIRCRPPRLPRPRPRPEHDPRP | -0.131 |
| RRIRERPPRLPRPRPRPGWIPRP | -0.105 |
| RRIRPRPPRLPRPRPRPAQFPRP | 0.272 |
| RRIRSRPPRLPRPRPRPNMRPRP | 0.43 |
| RRIRWRPPRLPRPRPRPHLRPRP | 0.039 |
| RRIRHRPPRLPRPRPRPKTSPRP | -0.0692 |
| RRIRGRPPRLPRPRPRPRKPPRP | 0.399 |
| RRIRNRPPRLPRPRPRPVIKPRP | -0.375 |
| RRIRPRPPRLPRPRPRPLLQPRP | 0.16 |
| RRIRKRPPRLPRPRPRPPSYPRP | 0.667 |
| RRIRQRPPRLPRPRPRPVGHPRP | -0.0132 |
| RRIRCRPPRLPRPRPRPTSHPRP | -0.348 |
| RRIRYRPPRLPRPRPRPQRDPRP | -0.256 |
| RRIRARPPRLPRPRPRPFNYPRP | -0.0393 |
| RRIRLRPPRLPRPRPRPQFGPRP | -0.291 |
| RRIRLRPPRLPRPRPRPWIEPRP | -0.00922 |
| RRIRSRPPRLPRPRPRPWMYPRP | -0.0974 |

| Sequence | shrunken log2 fold change |
| --- | --- |
| RRIRERPPRLPRPRPRPWVIPRP | 0.0392 |
| RRIRNRPPRLPRPRPRPQFLPRP | 0.106 |
| RRIRVRPPRLPRPRPRPWYHPRP | -0.209 |
| RRIRSRPPRLPRPRPRPYHNPRP | -1.22 |
| RRIRARPPRLPRPRPRPANKPRP | 0.0442 |
| RRIRFRPPRLPRPRPRPMPDPRP | -0.0671 |
| RRIRFRPPRLPRPRPRPRGYPRP | -0.25 |
| RRIRARPPRLPRPRPRPASQPRP | 0.445 |
| RRIRKRPPRLPRPRPRPPVLPRP | -0.0742 |
| RRIRYRPPRLPRPRPRPKYPPRP | -0.0165 |
| RRIRARPPRLPRPRPRPADIPRP | -0.245 |
| RRIRRRPPRLPRPRPRPGGKPRP | 0.0881 |
| RRIRERPPRLPRPRPRPENYPRP | 2 |
| RRIRARPPRLPRPRPRPAEDPRP | 1.19 |
| RRIRLRPPRLPRPRPRPELRPRP | 0.214 |
| RRIRIRPPRLPRPRPRPMSYPRP | 0.0721 |
| RRIRDRPPRLPRPRPRPRWYPRP | -0.0526 |
| RRIRSRPPRLPRPRPRPDCYPRP | -0.374 |
| RRIRARPPRLPRPRPRPCGTPRP | 0.475 |
| RRIRPRPPRLPRPRPRPNHEPRP | -0.419 |
| RRIRNRPPRLPRPRPRPEAFPRP | 0.0792 |
| RRIRTRPPRLPRPRPRPLNAPRP | -0.264 |
| RRIRNRPPRLPRPRPRPCATPRP | -0.0524 |
| RRIRVRPPRLPRPRPRPGGIPRP | 0.143 |
| RRIRMRPPRLPRPRPRPVVIPRP | -0.174 |

| Sequence | shrunken log2 fold change |
| --- | --- |
| RRIRCRPPRLPRPRPRPRSAPRP | 0.0532 |
| RRIRRRPPRLPRPRPRPKYWPRP | 0.00676 |
| RRIRPRPPRLPRPRPRPEAMPRP | 0.0142 |
| RRIRWRPPRLPRPRPRPGNTPRP | -0.348 |
| RRIRVRPPRLPRPRPRPKKSPRP | 0.585 |
| RRIRFRPPRLPRPRPRPGDLPRP | -0.23 |
| RRIRGRPPRLPRPRPRPWSKPRP | -0.423 |
| RRIRQRPPRLPRPRPRPVKLPRP | -0.0467 |
| RRIRGRPPRLPRPRPRPRNDPRP | 0.113 |
| RRIRTRPPRLPRPRPRPVELPRP | -0.0533 |
| RRIRYRPPRLPRPRPRPLMPPRP | -0.931 |
| RRIRNRPPRLPRPRPRPSFCPRP | -0.548 |
| RRIRGRPPRLPRPRPRPQQYPRP | -0.107 |
| RRIRIRPPRLPRPRPRPNVDPRP | -0.272 |
| RRIRMRPPRLPRPRPRPSAIPRP | 0.476 |
| RRIRWRPPRLPRPRPRPTWAPRP | 0.369 |
| RRIRARPPRLPRPRPRPASHPRP | 2.2 |
| RRIRHRPPRLPRPRPRPAGVPRP | 0.141 |
| RRIRKRPPRLPRPRPRPCQIPRP | 0.0947 |
| RRIRYRPPRLPRPRPRPTDLPRP | -0.396 |
| RRIRFRPPRLPRPRPRPDGGPRP | -0.537 |
| RRIRVRPPRLPRPRPRPDLNPRP | -0.233 |
| RRIRKRPPRLPRPRPRPVDVPRP | 0.116 |
| RRIRGRPPRLPRPRPRPVIAPRP | 0.506 |
| RRIRKRPPRLPRPRPRPAPLPRP | 0.929 |
